B1: Tyrosinase 368-376-D epitopic peptide (peptide)
peptide: YMDGTMSQV
notes: synthetic peptide; also called Tyrosinase.368-D

Target: T1, HLA-A2.1 molecules on T2 (TAP-, HLA-A2.1+) cells (human)
T1 construct: MHC class I molecule to which peptides were added from outside; Surface HLA-A2.1 was detected with mAb BB7.2; also called H.A.-A2.1
Experiment: T2 cells, peptide binding by surface HLA-A2.1 (BB7.2) flow cytometry; ratio of concentrations reaching 20% of maximal binding

Binder	RA (relative affinity)
VLYRYGSFSV (synthetic peptide) [gp100 476-485 epitopic peptide]	10 ratio to HIV 1 rt.476 reference peptide
LLDGTATLRL (synthetic peptide) [gp100 457-466 epitopic peptide]	1.65 ratio to HIV 1 rt.476 reference peptide
MLLAVLYCL (synthetic peptide) [Tyrosinase 1-9 epitopic peptide]	> 60 ratio to HIV 1 rt.476 reference peptide
ILTVILGVL (synthetic peptide) [Melan-A/MART-1 32-40 epitopic peptide]	21.1 ratio to HIV 1 rt.476 reference peptide
B1	2.27 ratio to HIV 1 rt.476 reference peptide

Reference: patent US7345026 (INSTITUT PASTEUR, dated 2008)
